Source: patent US20250092135A1 (NANJING LEADS BIOLABS, published 2025)
Values belong to the binder of their own block, whether it stands above or below them.

Columns and labels:
[1] = target: T1, human MUC16 protein endogenously expressed on cells (human, UniProt Q8WXI7 1-14507); assay: flow cytometry, OVCAR3 cells (endogenous human MUC16), PE anti-human IgG Fc secondary, MFI; EC50 table under the plot, unit from the axis Conc.(nM)
T1 construct: whole, on cells; also called MUC16 on OVCAR3 cells; MUC16 in ovarian carcinoma tissue
Description: (1) Whether the anti-CD3/anti-MUC16 bispecific antibodies in the present invention could bind to the MUC16 protein endogenously expressed on human ovarian carcinoma cells (OVCAR3) (Cell Bank of Type Culture Collection Committee of the Chinese Academy of Sciences, Cat #TCHu228) was determined by cell binding experiments.
The experiments were performed using flow cytometry. OVCAR3 cells were digested, centrifuged and collected. The cells were resuspended in a PBS solution, and seeded into a 96-well plate (Corning, Cat #3799) at 1×10⁵ cells/well. The 96-well plate was centrifuged and then the supernatant was discarded. 100 μL of the serially diluted test bispecific antibody (at a maximum concentration of 200 nM, 5-fold dilution from 100 nM, 9 concentration points in total) was added to the OVCAR3 cells. The plate was incubated at 4° C. for 30 min and centrifuged (1000 rpm, 5 min), and then the supernatant was discarded. 100 μL of PBS solution was added to each well, and the cells were washed twice. 100 μL of fluorescent secondary antibody R-PE-conjugated AffiniPure Goat Anti-Human IgG, Fcγ Fragment Specific (Jackson ImmunoResearch, Cat #109-116-098) diluted in a ratio of 1:200 was then added. The cells were incubated at 4° C. for 30 min. After the cells were washed twice with the PBS solution, 100 μL of PBS solution was added to each well to resuspend the cells, and finally, fluorescence signals were detected using a BD Accuri C5 (BD Bioscience) flow cytometer according to the manufacturer's instructions. REGN4018 was used as a positive control.

[2] = target: T2, rhesus monkey MUC16 protein (ECT_TM RhMuc16) on 293T cells (rhesus monkey); assay: flow cytometry, 293T/rhesus MUC16 cells as printed on the sheet and in the legend (the example, paragraph 611, speaks of cynomolgus MUC16), PE anti-human IgG Fc secondary, MFI; EC50 table under the plot, unit from the axis Conc.(nM)
T2 chain: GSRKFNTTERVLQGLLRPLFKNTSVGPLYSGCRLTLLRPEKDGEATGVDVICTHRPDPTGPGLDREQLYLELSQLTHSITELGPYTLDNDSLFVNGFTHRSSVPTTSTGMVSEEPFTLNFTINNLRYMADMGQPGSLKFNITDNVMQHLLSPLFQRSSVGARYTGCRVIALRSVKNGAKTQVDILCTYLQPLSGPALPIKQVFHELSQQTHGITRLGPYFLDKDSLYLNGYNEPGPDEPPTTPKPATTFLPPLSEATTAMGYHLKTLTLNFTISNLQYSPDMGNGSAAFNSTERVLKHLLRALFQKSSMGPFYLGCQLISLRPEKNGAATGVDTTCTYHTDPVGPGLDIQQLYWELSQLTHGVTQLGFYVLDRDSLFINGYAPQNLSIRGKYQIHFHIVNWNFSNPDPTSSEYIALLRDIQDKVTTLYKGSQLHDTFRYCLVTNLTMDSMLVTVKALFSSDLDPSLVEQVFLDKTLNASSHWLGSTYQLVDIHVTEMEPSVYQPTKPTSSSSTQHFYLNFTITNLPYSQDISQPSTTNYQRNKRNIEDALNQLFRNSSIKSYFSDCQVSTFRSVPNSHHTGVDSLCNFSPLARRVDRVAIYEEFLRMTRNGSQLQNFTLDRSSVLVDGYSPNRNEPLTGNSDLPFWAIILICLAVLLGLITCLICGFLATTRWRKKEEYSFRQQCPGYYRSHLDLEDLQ
Description: Referring to the flow cytometry described above, the serially diluted test bispecific antibody (at an initial concentration of 100 nM, 5-fold dilution, 9 points) was added to the cells, and the plate was incubated at 4° C. for 30 min. The cells were washed twice with PBS, and then fluorescent secondary antibody R-PE-conjugated AffiniPure Goat Anti-Human IgG, Fcγ Fragment Specific was added. The cells were incubated at 4° C. for 30 min. The cells were washed twice with PBS and then resuspended, and finally, fluorescence signals were detected using a BD Accuri C5 (BD Bioscience) flow cytometer.

[3] = target: T3, Human CD3D & CD3E heterodimer protein (human, UniProt P07766 23-126; P04234 22-105); assay: BLI (ForteBio Octet RED96), antibody on AHC sensor, 100 nM analyte, 1:1 model
T3 construct: Bought recombinant heterodimer; also called human CD3 protein (Sino Biological, Cat #CT038-H2508H)
T3 sequence (P07766 23-126 limits assumed, chain 1 of 2): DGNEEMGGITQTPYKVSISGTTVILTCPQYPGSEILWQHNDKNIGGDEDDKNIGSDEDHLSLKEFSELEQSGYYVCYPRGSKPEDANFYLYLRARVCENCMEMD
T3 sequence (P04234 22-105 limits assumed, chain 2 of 2): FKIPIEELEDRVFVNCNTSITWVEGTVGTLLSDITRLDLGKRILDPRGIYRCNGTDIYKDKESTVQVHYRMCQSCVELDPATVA
Source text: (§1) In this experiment, the binding affinity of the bispecific antibody [0913] for human CD3D & CD3E heterodimer protein (Sino Biological, Cat #CT038-H2508H) and monkey CD3D & CD3E heterodimer protein (Acro biosystems, Cat #CDD-C52W4) was detected using ForteBio Octet RED96 according to the manufacturer's instructions.
(§2) Briefly, an AHC sensor (ForteBio, Cat #18-5060) was placed in a running buffer (1×PBS, Hyclone, Cat #SH30256.01, containing 0.02% Tween 20, pH 7.0) and pre-equilibrated at room temperature for 10 min.
(§3) The experimental data were fitted and calculated using a Fortebio Data Analysis software 1:1 binding model.

[4] = target: T4, Cynomolgus monkey CD3D & CD3E heterodimer protein (cynomolgus monkey, UniProt Q95LI5 22-117; Q95LI8 22-105); assay: as above
T4 construct: same catalogue number; also called monkey CD3 protein (Acro biosystems, Cat #CDD-C52W4)
T4 sequence (Q95LI5 22-117 limits assumed, chain 1 of 2): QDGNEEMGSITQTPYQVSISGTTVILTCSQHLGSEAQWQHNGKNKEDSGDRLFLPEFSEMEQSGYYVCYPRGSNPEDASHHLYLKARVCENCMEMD
T4 sequence (Q95LI8 22-105 limits assumed, chain 2 of 2): as the sequence (P04234 22-105 limits assumed, chain 2 of 2) above, with I5V, N15K, I20V, S32T, D33N, I34N, T64A, S74N, V83L counted along it
Source text: as §1, §2, §3

[5] = target: T5, cynomolgus monkey GPRC5D protein (cynomolgus monkey, UniProt Q9NZD1 1-343 (human entry)); assay: flow cytometry, HEK293T-CynoGPRC5D cells (sheet: 293T-cynoGPRC5D), PE anti-human IgG Fc secondary, MFI
T5 construct: also called CynoGPRC5D; on HEK293T-CynoGPRC5D cells
T5 chain: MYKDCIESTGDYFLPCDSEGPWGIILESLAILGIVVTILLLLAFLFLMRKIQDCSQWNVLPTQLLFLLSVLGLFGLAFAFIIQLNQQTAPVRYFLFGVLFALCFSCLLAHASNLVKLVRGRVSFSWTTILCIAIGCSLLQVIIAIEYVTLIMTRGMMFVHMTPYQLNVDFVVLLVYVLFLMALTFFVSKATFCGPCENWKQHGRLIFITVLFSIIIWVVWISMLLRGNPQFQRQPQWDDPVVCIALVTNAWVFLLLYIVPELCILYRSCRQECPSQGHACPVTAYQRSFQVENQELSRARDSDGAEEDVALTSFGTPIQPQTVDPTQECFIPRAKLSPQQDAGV
Description: The HEK293T-CynoGPRC5D cell line shown in Table 2 was subjected to enzymatic digestion to obtain a single cell suspension. The single cell suspension was centrifuged at room temperature at 400×g, and then the medium was discarded. The cell pellet was washed once with PBS and then resuspended in the serially diluted bifunctional antibodies shown in Table 5 (at an initial concentration of 115.6 nM, 4-fold gradient dilution, 8 concentration points in total), and the cells were incubated at 4° C. for 30 min. The cells were washed once with PBS, and then fluorescent secondary antibody R-PE-conjugated AffiniPure Goat Anti-Human IgG, Fcγ Fragment Specific (Jackson ImmunoResearch, Cat #109-116-098) diluted in a 1:200 ratio was added. The cells were incubated in the dark at 4° C. for 30 min. The cells were washed twice with PBS and then resuspended, and finally, two-channel fluorescence signals were detected using a Beckman Cytoflex flow cytometer.

[6] = target: T6, human GPRC5D protein (human, UniProt Q9NZD1 1-345); assay: flow cytometry, HEK293T cells stably expressing human GPRC5D (sheet: 293T-huGPRC5D), PE anti-human IgG Fc secondary, MFI
T6 construct: NCI-H929 cells express it endogenously in the functional assays; also called HuGPRC5D; huGPRC5D
T6 sequence (Q9NZD1 whole entry): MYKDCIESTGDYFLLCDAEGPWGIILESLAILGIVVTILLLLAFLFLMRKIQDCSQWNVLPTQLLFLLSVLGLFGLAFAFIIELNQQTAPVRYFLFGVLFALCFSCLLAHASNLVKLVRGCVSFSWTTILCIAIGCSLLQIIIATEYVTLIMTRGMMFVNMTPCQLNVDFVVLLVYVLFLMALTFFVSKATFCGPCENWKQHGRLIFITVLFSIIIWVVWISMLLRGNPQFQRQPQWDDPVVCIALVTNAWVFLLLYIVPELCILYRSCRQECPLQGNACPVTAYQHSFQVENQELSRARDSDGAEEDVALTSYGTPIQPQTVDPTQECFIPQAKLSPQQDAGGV
Description: (2) Whether the anti-CD3/anti-GPRC5D bispecific antibodies in the present invention could bind to HEK293T cells stably expressing the human GPRC5D protein was determined by cell binding experiments. […] The plate was centrifuged at room temperature at 400×g, and then the supernatant was discarded. The cells were washed twice with PBS and centrifuged. The supernatant was discarded. The cell pellet was resuspended in fluorescent secondary antibody R-PE-conjugated AffiniPure Goat Anti-Human IgG, Fcγ Fragment Specific (Jackson ImmunoResearch, Cat #109-116-098) diluted in a 1:200 ratio. The cells were incubated in the dark at 4° C. for 30 min. The cells were washed twice with PBS, and 100 μL of PBS was added to each well to resuspend the cells. Fluorescence signals were detected using a Beckman Cytoflex flow cytometer.

EC50 [1]: 1.45 nM | EC50 [2]: 3.74 nM
B1: control antibody REGN4018 (bispecific antibody, human IgG4 S228P, kappa)
heavy 1: QVQLVESGGGLVKPGGSLRLSCAASGFTFSNYYMSWVRQAPGKGLEWISYISGRGSTIFYADSVKGRITISRDNAKNSLFLQMNSLRAEDTAVYFCVKDRGGYSPYWGQGTLVTVSSASTKGPSVFPLAPCSRSTSESTAALGCLVKDYFPEPVTVSWNSGALTSGVHTFPAVLQSSGLYSLSSVVTVPSSSLGTKTYTCNVDHKPSNTKVDKRVESKYGPPCPPCPAPPVAGPSVFLFPPKPKDTLMISRTPEVTCVVVDVSQEDPEVQFNWYVDGVEVHNAKTKPREEQFNSTYRVVSVLTVLHQDWLNGKEYKCKVSNKGLPSSIEKTISKAKGQPREPQVYTLPPSQEEMTKNQVSLTCLVKGFYPSDIAVEWESNGQPENNYKTTPPVLDSDGSFFLYSRLTVDKSRWQEGNVFSCSVMHEALHNHYTQKSLSLSLGK
heavy 2: EVQLVESGGGLVQPGRSLRLSCAASGFTFDDYSMHWVRQAPGKGLEWVSGISWNSGSIGYADSVKGRFTISRDNAKNSLYLQMNSLRAEDTALYYCAKYGSGYGKFYYYGMDVWGQGTTVTVSSASTKGPSVFPLAPCSRSTSESTAALGCLVKDYFPEPVTVSWNSGALTSGVHTFPAVLQSSGLYSLSSVVTVPSSSLGTKTYTCNVDHKPSNTKVDKRVESKYGPPCPPCPAPPVAGPSVFLFPPKPKDTLMISRTPEVTCVVVDVSQEDPEVQFNWYVDGVEVHNAKTKPREEQFNSTYRVVSVLTVLHQDWLNGKEYKCKVSNKGLPSSIEKTISKAKGQPREPQVYTLPPSQEEMTKNQVSLTCLVKGFYPSDIAVEWESNGQPENNYKTTPPVLDSDGSFFLYSRLTVDKSRWQEGNVFSCSVMHEALHNRFTQKSLSLSLGK
light: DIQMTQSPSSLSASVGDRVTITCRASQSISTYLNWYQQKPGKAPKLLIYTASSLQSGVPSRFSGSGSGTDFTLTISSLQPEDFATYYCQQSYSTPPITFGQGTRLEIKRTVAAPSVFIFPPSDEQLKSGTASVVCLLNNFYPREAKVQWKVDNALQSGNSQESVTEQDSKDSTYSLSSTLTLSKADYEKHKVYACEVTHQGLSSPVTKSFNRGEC
notes: Derived from US20190389966A1; heavy chains REGN4018-8767pH and REGN4018-G20, light chain REGN4018-8767pL; also called positive control

Kd [3]: 727 nM | koff [3]: 0.0158 s⁻¹ | kon [3]: 21700 M⁻¹ s⁻¹ | Kd [4]: 75.9 nM | koff [4]: 0.00631 s⁻¹ | kon [4]: 83200 M⁻¹ s⁻¹ | EC50 (read off the curve) [5]: ~8 nM | EC50 (read off the curve) [6]: ~3 nM
B2: anti-CD3/GPRC5D bispecific antibody Bi-29H6-6 (bispecific antibody)
heavy 1: QVQLVQSGAEVKKPGASVKVSCKASGYTFTTHYMYWVRQAPGQGLEWIGGINPSNEATNFNEKFKTKATLTVDKSTSTAYMELSSLRSEDTAVYYCTRVGGLSYTMDYWGQGTLVTVSSASTKGPSVFPLAPSSKSTSGGTAALGCLVKDYFPEPVTVSWNSGALTSGVHTFPAVLQSSGLYSLSSVVTVPSSSLGTQTYICNVNHKPSNTKVDKKVEPKSCDKTHTCPPCPAPEAAGGPSVFLFPPKPKDTLMISRTPEVTCVVVAVSHEDPEVKFNWYVDGVEVHNAKTKPREEQYNSTYRVVSVLTVLHQDWLNGKEYKCKVSNKALAAPIEKTISKAKGQPREPQVCTLPPSRDELTKNQVSLSCAVKGFYPSDIAVEWESNGQPENNYKTTPPVLDSDGSFFLVSKLTVDKSRWQQGNVFSCSVMHEALHNHYTQKSLSLSPGK
heavy 2: not shown
light: not shown
notes: G56E variant of the 29H6 VH; also called anti-GPRC5D/CD3 bifunctional antibody Bi-29H6-6
